Experimental data taken from patent publication US20240002475A1 (ROCKEFELLER UNIVERSITY, published 2024).

Molecular target: green fluorescent protein (GFP), recombinant (Aequorea victoria, UniProt P42212 1-238 = GFP)
Test: not stated there (SPR or in vitro binding assay)

B1: LaG-41 (VHH)
VHH: DVQLVESGGGLVQAGGSLRLSCAASGPTGAMAWFRQAPGKEREFVGGISGSETDTYYVDSVKGRFTVDRDNVKNTVYLQMNSLKPEDTAVYYCAARRRITLFTSRTDYDFWGRGTQVTV
Kd: 900 pM
